Test results: the supplement of paper PMC11246515
± gives the standard deviation of the averaged measurements.

Test: total protein half-life in vivo (active degradation + dilution); higher = more stable protein
[1] = E. coli NCM3722 delta-clpP delta-lon delta-hslV, growth: N-lim chemostat, doubling time 6 h
[2] = E. coli NCM3722 delta-clpP, growth: N-lim chemostat, doubling time 6 h
[3] = E. coli NCM3722 delta-hslV, growth: N-lim chemostat, doubling time 6 h
[4] = E. coli NCM3722 delta-lon, growth: N-lim chemostat, doubling time 6 h
[5] = E. coli NCM3722 delta-smpB, growth: N-lim chemostat, doubling time 6 h
[6] = wild type E. coli NCM3722, growth: C-lim chemostat, doubling time 3 h
[7] = wild type E. coli NCM3722, growth: C-lim chemostat, doubling time 6 h
[8] = wild type E. coli NCM3722, growth: C-lim chemostat, doubling time 12 h
[9] = wild type E. coli NCM3722, growth: N-lim chemostat, doubling time 6 h
[10] = wild type E. coli NCM3722, growth: N-lim chemostat, doubling time 12 h
[11] = wild type E. coli NCM3722, growth: P-lim chemostat, doubling time 6 h
[12] = wild type E. coli NCM3722, growth: P-lim chemostat, doubling time 12 h

MEAIKGSDVNVPDAVFAWMLDGRGGVKPLENTDVIDEAHPCWLHLNYVHHDSAQWLATTPLLPNNVRDALAGESTRPRVSRLGEGTLITLRCINGSTDERPDQLVAMRVYMDGRLIVSTRQRKVLALDDVVSDLEEGTGPTDCGGWLVDVCDALTDHSSEFIEQLHDKIIDLEDNLLDQQIPPRGFLALLRKQLIVMRRYMAPQRDVYARLASERLPWMSDDQRRRMQDIADRLGRGLDEIDACIARTGVMADEIAQVMQENLARRTYTMSLMAMVFLPSTFLTGLFGVNLGGIPGGGWQFGFSIFCILLVVLIGGVALWLHRSKWL
total protein half-life in vivo [1]: 6.29 ± 0.86 h | total protein half-life in vivo [2]: 5.99 ± 0.61 h | total protein half-life in vivo [3]: 5.56 ± 0.95 h | total protein half-life in vivo [4]: 6.34 ± 0.75 h | total protein half-life in vivo [5]: 5.71 ± 0.2 h | total protein half-life in vivo [6]: 3.06 ± 0.47 h | total protein half-life in vivo [7]: 6.04 ± 0.35 h | total protein half-life in vivo [8]: 11.5 ± 0.33 h | total protein half-life in vivo [9]: 6.07 ± 0.2 h | total protein half-life in vivo [10]: 11.9 ± 0.9 h | total protein half-life in vivo [11]: 5.31 ± 0.072 h | total protein half-life in vivo [12]: 8.98 ± 0.42 h

MAQQTPLYEQHTLCGARMVDFHGWMMPLHYGSQIDEHHAVRTDAGMFDVSHMTIVDLRGSRTREFLRYLLANDVAKLTKSGKALYSGMLNASGGVIDDLIVYYFTEDFFRLVVNSATREKDLSWITQHAEPFGIEITVRDDLSMIAVQGPNAQAKAATLFNDAQRQAVEGMKPFFGVQAGDLFIATTGYTGEAGYEIALPNEKAADFWRALVEAGVKPCGLGARDTLRLEAGMNLYGQEMDETISPLAANMGWTIAWEPADRDFIGREALEVQREHGTEKLVGLVMTEKGVLRNELPVRFTDAQGNQHEGIITSGTFSPTLGYSIALARVPEGIGETAIVQIRNREMPVKVTKPVFVRNGKAVA
total protein half-life in vivo [1]: 4.25 ± 0.29 h | total protein half-life in vivo [2]: 3.94 ± 0.048 h | total protein half-life in vivo [3]: 4.22 ± 0.35 h | total protein half-life in vivo [4]: 4.16 ± 0.17 h | total protein half-life in vivo [5]: 3.94 ± 0.068 h | total protein half-life in vivo [6]: 3.01 ± 0.22 h | total protein half-life in vivo [7]: 5.71 ± 0.81 h | total protein half-life in vivo [8]: 10.5 ± 0.62 h | total protein half-life in vivo [9]: 3.81 ± 0.2 h | total protein half-life in vivo [10]: 6.76 ± 0.92 h | total protein half-life in vivo [11]: 5.88 ± 0.12 h | total protein half-life in vivo [12]: 11.4 ± 0.68 h

MRITIILVAPARAENIGAAARAMKTMGFSDLRIVDSQAHLEPATRWVAHGSGDIIDNIKVFPTLAESLHDVDFTVATTARSRAKYHYYATPVELVPLLEEKSSWMSHAALVFGREDSGLTNEELALADVLTGVPMVADYPSLNLGQAVMVYCYQLATLIQQPAKSDATADQHQLQALRERAMTLLTTLAVADDIKLVDWLQQRLGLLEQRDTAMLHRLLHDIEKNITK
total protein half-life in vivo [2]: 4 ± 0.61 h | total protein half-life in vivo [3]: 3.98 ± 0.83 h | total protein half-life in vivo [4]: 4.08 ± 0.37 h | total protein half-life in vivo [5]: 3.38 ± 0.046 h | total protein half-life in vivo [7]: 5.62 ± 0.99 h | total protein half-life in vivo [8]: 7.53 ± 0.58 h | total protein half-life in vivo [9]: 3.72 ± 0.22 h | total protein half-life in vivo [10]: 5.26 ± 0.45 h | total protein half-life in vivo [11]: 4.87 ± 0.26 h | total protein half-life in vivo [12]: 11.5 ± 2.5 h

MSKPPLFFIVIIGLIVVAASFRFMQQRREKADNDMAPLQQKLVVVSNKREKPINDRRSRQQEVTPAGTSIRYEASFKPQSGGMEQTFRLDAQQYHALTVGDKGTLSYKGTRFVSFVGEQ
total protein half-life in vivo [2]: 6.5 h | total protein half-life in vivo [3]: 6.4 ± 0.69 h | total protein half-life in vivo [4]: 5.45 ± 0.15 h | total protein half-life in vivo [5]: 5.65 ± 0.38 h | total protein half-life in vivo [6]: 3.61 ± 0.1 h | total protein half-life in vivo [7]: 6.11 ± 0.42 h | total protein half-life in vivo [8]: 11.6 ± 0.63 h | total protein half-life in vivo [9]: 5.71 ± 0.065 h | total protein half-life in vivo [10]: 11.3 ± 0.54 h | total protein half-life in vivo [11]: 5.66 ± 0.5 h | total protein half-life in vivo [12]: 11.5 ± 0.14 h

MPEGPEIRRAADNLEAAIKGKPLTDVWFAFPQLKPYQSQLIGQHVTHVETRGKALLTHFSNDLTLYSHNQLYGVWRVVDTGEEPQTTRVLRVKLQTADKTILLYSASDIEMLTPEQLTTHPFLQRVGPDVLDPNLTPEVVKERLLSPRFRNRQFAGLLLDQAFLAGLGNYLRVEILWQVGLTGNHKAKDLNAAQLDALAHALLEIPRFSYATRGQVDENKHHGALFRFKVFHRDGEPCERCGSIIEKTTLSSRPFYWCPGCQH
total protein half-life in vivo [1]: 5.54 ± 0.6 h | total protein half-life in vivo [2]: 5.55 ± 0.23 h | total protein half-life in vivo [3]: 6.197 ± 0.018 h | total protein half-life in vivo [4]: 6.19 ± 0.85 h | total protein half-life in vivo [5]: 4.38 ± 0.63 h | total protein half-life in vivo [6]: 2.36 ± 0.55 h | total protein half-life in vivo [8]: 9.48 h | total protein half-life in vivo [9]: 5.45 h | total protein half-life in vivo [10]: 11 ± 0.57 h | total protein half-life in vivo [12]: 7.33 h

MKLQKQLLEAVEHKQLRPLDVQFALTVAGDEHPAVTLAAALLSHDAGEGHVCLPLSRLENNEASHPLLATCVSEIGELQNWEECLLASQAVSRGDEPTPMILCGDRLYLNRMWCNERTVARFFNEVNHAIEVDEALLAQTLDKLFPVSDEINWQKVAAAVALTRRISVISGGPGTGKTTTVAKLLAALIQMADGERCRIRLAAPTGKAAARLTESLGKALRQLPLTDEQKKRIPEDASTLHRLLGAQPGSQRLRHHAGNPLHLDVLVVDEASMIDLPMMSRLIDALPDHARVIFLGDRDQLASVEAGAVLGDICAYANAGFTAERARQLSRLTGTHVPAGTGTEAASLRDSLCLLQKSYRFGSDSGIGQLAAAINRGDKTAVKTVFQQDFTDIEKRLLQSGEDYIAMLEEALAGYGRYLDLLQARAEPDLIIQAFNEYQLLCALREGPFGVAGLNERIEQFMQQKRKIHRHPHSRWYEGRPVMIARNDSALGLFNGDIGIALDRGQGTRVWFAMPDGNIKSVQPSRLPEHETTWAMTVHKSQGSEFDHAALILPSQRTPVVTRELVYTAVTRARRRLSLYADERILSAAIATRTERRSGLAALFSSRE
total protein half-life in vivo [1]: 4.81 ± 0.19 h | total protein half-life in vivo [2]: 4.01 ± 1.1 h | total protein half-life in vivo [3]: 2.9 ± 0.19 h | total protein half-life in vivo [4]: 3.33 ± 0.44 h | total protein half-life in vivo [5]: 2.739 ± 0.015 h | total protein half-life in vivo [6]: 2.89 ± 0.43 h | total protein half-life in vivo [7]: 4.39 ± 0.1 h | total protein half-life in vivo [8]: 6.98 ± 0.28 h | total protein half-life in vivo [9]: 2.97 ± 0.079 h | total protein half-life in vivo [10]: 4.37 ± 0.29 h | total protein half-life in vivo [11]: 4.36 ± 0.065 h | total protein half-life in vivo [12]: 7.54 ± 0.6 h
